System: T1, NPM2 (embryonic NPM1 paralog)
T1 sequence (Q86SE8 1-214, species assumed, looked up): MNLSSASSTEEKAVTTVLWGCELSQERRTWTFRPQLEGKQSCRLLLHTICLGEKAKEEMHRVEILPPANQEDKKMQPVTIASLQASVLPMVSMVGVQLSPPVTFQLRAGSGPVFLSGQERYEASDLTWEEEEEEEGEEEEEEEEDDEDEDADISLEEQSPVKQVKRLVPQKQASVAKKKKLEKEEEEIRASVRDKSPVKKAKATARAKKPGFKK

B1: CCP5 (cytosolic carboxypeptidase-like 5) (enzyme, UniProt Q8NDL9 1-886, looked up, species assumed)
Cytosolic carboxypeptidase-like protein 5: MELRCGGLLFSSRFDSGNLAHVEKVESLSSDGEGVGGGASALTSGIASSPDYEFNVWTRPDCAETEFENGNRSWFYFSVRGGMPGKLIKINIMNMNKQSKLYSQGMAPFVRTLPTRPRWERIRDRPTFEMTETQFVLSFVHRFVEGRGATTFFAFCYPFSYSDCQELLNQLDQRFPENHPTHSSPLDTIYYHRELLCYSLDGLRVDLLTITSCHGLREDREPRLEQLFPDTSTPRPFRFAGKRIFFLSSRVHPGETPSSFVFNGFLDFILRPDDPRAQTLRRLFVFKLIPMLNPDGVVRGHYRTDSRGVNLNRQYLKPDAVLHPAIYGAKAVLLYHHVHSRLNSQSSSEHQPSSCLPPDAPVSDLEKANNLQNEAQCGHSADRHNAEAWKQTEPAEQKLNSVWIMPQQSAGLEESAPDTIPPKESGVAYYVDLHGHASKRGCFMYGNSFSDESTQVENMLYPKLISLNSAHFDFQGCNFSEKNMYARDRRDGQSKEGSGRVAIYKASGIIHSYTLECNYNTGRSVNSIPAACHDNGRASPPPPPAFPSRYTVELFEQVGRAMAIAALDMAECNPWPRIVLSEHSSLTNLRAWMLKHVRNSRGLSSTLNVGVNKKRGLRTPPKSHNGLPVSCSENTLSRARSFSTGTSAGGSSSSQQNSPQMKNSPSFPFHGSRPAGLPGLGSSTQKVTHRVLGPVREPRSQDRRRQQQPLNHRPAGSLAPSPAPTSSGPASSHKLGSCLLPDSFNIPGSSCSLLSSGDKPEAVMVIGKGLLGTGARMPCIKTRLQARPRLGRGSPPTRRGMKGSSGPTSPTPRTRESSELELGSCSATPGLPQARPPRPRSAPAFSPISCSLSDSPSWNCYSRGPLGQPEVCFVPKSPPLTVSPRV
deglutamylation of substrate, blot (FIG. 2C): the CCP5 enzyme deglutamylates NPM2

— US20250360126
